Biological target: 3-pTza peptide library (Ac-Cys.G/A.G/A.G/A.G/A.X.G/A.G/A.G/A.G/A-CONH2, X = 3-pTza)
Test: 3-pTza peptide dot blot array

lowest amount detected: 800 pg
B1: 3-pHis mAb SC44-8 (antibody, V domains shown)
VH: ESGRGLVQPGGSLTLTCTASGFSIDSYGFSWVRQAPGKGLEHIGYLTAGGRAFYASWAKSRSTITRNTNENTVTLKMTSLTAADTATYFCAKLGSGNPVAIWGPGTLVTVSS
VL: DPVMTPTPSFTSAAVGGTVTINCQSSQSVWRNKNLAWYQQKPGQPPKRLIYAIATLDSGVPSRFSGSGSGTQFTLTISDVQCDDAATYYCVGHYGSENDAYYAFGGGTEVVVKG
